We go through one substance from US20250136702A1, “HUMAN LIFR ANTIGEN BINDING PROTEIN, PREPARATION METHOD THEREFOR, AND APPLICATION THEREOF” (NONA BIOSCIENCES (SUZHOU) CO., LTD., priority 2020, published 2025).

Assay [1] concerns the target human LIFR expressed on the surface of 293T cells (human) (UniProt P42702). Description: flow cytometry on HEK293T-huLIFR cells, median fluorescence, span of the fitted curve.
Assay [2] has as its target human LIFR/gp130 heterodimer expressed on the surface of 293T cells (human) (UniProt P42702). Description: flow cytometry on HEK293T-huLIFR/gp130 cells, median fluorescence, span of the fitted curve. (In general: In flow cytometry, cells or beads pass a laser one at a time.)

Sequence of human LIFR expressed on the surface of 293T cells (human) (P42702 45-1097): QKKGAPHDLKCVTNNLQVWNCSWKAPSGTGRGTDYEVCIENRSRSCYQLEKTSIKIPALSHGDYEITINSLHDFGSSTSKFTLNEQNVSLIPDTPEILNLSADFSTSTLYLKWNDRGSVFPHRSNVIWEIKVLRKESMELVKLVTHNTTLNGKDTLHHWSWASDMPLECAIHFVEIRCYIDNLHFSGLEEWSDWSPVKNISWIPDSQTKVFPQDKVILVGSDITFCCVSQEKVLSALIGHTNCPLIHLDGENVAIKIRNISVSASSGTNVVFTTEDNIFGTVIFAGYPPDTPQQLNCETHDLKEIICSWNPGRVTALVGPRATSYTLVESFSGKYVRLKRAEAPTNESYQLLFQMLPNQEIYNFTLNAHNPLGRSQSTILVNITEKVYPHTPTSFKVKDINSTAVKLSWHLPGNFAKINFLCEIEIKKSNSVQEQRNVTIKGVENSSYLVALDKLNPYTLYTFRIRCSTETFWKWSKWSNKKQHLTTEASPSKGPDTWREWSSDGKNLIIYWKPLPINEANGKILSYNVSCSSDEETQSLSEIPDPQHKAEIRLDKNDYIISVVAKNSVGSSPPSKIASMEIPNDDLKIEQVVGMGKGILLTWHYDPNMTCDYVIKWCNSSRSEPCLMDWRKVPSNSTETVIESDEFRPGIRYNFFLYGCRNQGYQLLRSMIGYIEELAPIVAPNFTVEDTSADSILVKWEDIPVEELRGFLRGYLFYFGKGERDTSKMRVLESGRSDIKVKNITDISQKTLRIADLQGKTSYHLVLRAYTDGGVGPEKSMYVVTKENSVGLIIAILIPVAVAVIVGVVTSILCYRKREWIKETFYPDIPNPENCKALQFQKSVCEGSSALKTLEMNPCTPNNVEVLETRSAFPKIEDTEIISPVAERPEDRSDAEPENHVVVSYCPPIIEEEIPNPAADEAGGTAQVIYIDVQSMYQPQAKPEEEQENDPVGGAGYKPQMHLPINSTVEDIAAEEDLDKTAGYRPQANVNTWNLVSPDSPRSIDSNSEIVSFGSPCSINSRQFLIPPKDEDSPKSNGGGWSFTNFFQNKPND
Sequence of human LIFR/gp130 heterodimer expressed on the surface of 293T cells (human) (P42702 45-1097, chain 1 of 2): as the sequence (P42702 45-1097) above
Sequence of human LIFR/gp130 heterodimer expressed on the surface of 293T cells (human) (P40189 23-918, chain 2 of 2, further chain): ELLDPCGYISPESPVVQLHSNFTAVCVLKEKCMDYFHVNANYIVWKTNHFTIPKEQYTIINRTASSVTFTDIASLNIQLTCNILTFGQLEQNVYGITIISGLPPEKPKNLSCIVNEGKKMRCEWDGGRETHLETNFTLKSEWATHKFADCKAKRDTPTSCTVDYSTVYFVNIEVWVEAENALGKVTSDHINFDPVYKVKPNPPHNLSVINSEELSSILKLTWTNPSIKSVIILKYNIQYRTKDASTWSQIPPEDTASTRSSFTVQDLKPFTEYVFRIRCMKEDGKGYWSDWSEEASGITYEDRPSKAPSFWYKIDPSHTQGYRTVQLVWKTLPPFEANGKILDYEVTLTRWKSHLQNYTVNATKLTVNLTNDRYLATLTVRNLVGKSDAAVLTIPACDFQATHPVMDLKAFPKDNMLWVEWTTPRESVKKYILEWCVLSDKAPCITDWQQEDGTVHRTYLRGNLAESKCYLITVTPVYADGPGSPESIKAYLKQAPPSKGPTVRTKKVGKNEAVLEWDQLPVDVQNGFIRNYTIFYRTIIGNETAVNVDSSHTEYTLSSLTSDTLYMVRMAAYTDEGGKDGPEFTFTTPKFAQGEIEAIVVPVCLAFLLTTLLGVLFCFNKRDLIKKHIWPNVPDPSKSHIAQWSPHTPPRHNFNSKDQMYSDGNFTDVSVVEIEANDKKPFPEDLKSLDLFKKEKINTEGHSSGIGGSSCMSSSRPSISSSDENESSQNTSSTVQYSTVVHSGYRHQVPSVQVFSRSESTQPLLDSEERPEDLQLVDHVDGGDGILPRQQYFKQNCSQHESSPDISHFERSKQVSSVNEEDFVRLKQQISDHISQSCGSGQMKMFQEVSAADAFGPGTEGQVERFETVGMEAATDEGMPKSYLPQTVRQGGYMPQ

Take hIgG1 (antibody): the Span in assay [1] was found to be 12; in assay [2], 90.1.
